According to patent US20030079244A1, “Agent for treatment of exocrine gland disorders and transgenic mouse useful for screening the same” (R-TECH UENO, LTD., priority 1997, published 2003):

How the values were obtained:
[1] = test system: salivary gland epithelial cells; assay: Cytotoxicity test against salivary gland epithelial cells (51Cr release); type: cell-based; conditions: CD4-positive T-cell effector cells treated with mouse IL-10 (0.1 mg/ml) with or without anti-FASL antibody (10 μg/ml); effector:target 20-fold; 4 hours at 37° C.; 51Cr in supernatant
Description: Cytotoxicity test against salivary gland epithelial cells
Spleen isolated from a B6 mouse was chopped into small pieces, the cells were collected with a syringe having 22-gage injection needle and the collected cells were passed through a meshed screen to obtain cell suspension. CD4-positive T-cells were isolated from the cell suspension by means of dynabeads to provide effector cells.
Salivary gland of the same mouse as above was immersed in DMEM medium containing 10% fetal calf serum supplemented with collagenase (750 units/ml), EDTA (0.76 mg/ml) and hyaluronidase type IV (500 units/ml) to isolate the salivary gland tissue, and the obtained cells were incubated in DMEM medium containing 10% fetal calf serum for 10 to 14 days in a CO2 incubator. The cultured cells were then analyzed with flow-cytometry and were confirmed that 85-95% of them were epithelial cells, and were used as target cells.
The target cells were labeled with 51Cr. Half of the effector cells were treated with mouse IL-10 (0.1 mg/ml) alone, whereas the other half were treated with mice IL-10 (0.1 mg/ml) and anti mice Fas ligand (FASL) neutralizing antibody (10 μg/ml) . […]
The amount of 51Cr in the supernatant of the respective culture was measured and the cytotoxic ratio was calculated by subtracting the 51Cr amount of the target cells cultured without effector cells.

[2] = test system: normal mouse spleen cells; assay: Effect of IL-10 on the expression of Fas ligand (flow-cytometry); type: cell-based; conditions: treated in vitro, analyzed 48 hours after the treatment; versus non-stimulated cells
Experimental: In order to study the role of IL-10 in Fas-ligand expression, normal mouse spleen cells were isolated, treated with mouse recombinant IL-10 in vitro and then analyzed with flow-cytometry 48 hours after the treatment.

B1: IL-10: mouse interleukin-10 used to treat effector cells and spleen cells (protein, UniProt P18893 19-178, looked up)
Interleukin-10: SRGQYSREDNNCTHFPVGQSHMLLELRTAFSQVKTFFQTKDQLDNILLTDSLMQDFKGYLGCQALSEMIQFYLVEVMPQAEKHGPEIKEHLNSLGEKLKTLRMRLRRCHRFLPCENKSKAVEQVKSDFNKLQDQGVYKAMNEFDIFINCIEAYMMIKMKS
With B1 the cytotoxic ratio [1] was 29.5% and the Fas ligand expression [2] was “Significantly higher amount of Fas ligand expression”.
